Paper PMC6613617, “Human DNA polymerase delta requires an iron–sulfur cluster for high-fidelity DNA synthesis”

Key:
[1] = target: T1, POLD1-CS;POLD2;POLD3;POLD4;PCNA (Homo sapiens;Homo sapiens;Homo …, UniProt P28340;P49005;Q15054;Q9HCU8;P12004 1-1107;1-469;1-466;1-107;1-261, C1076S||||); assay: EMSA; copurified with PCNA; no defect; EMSA: 20 mM Tris-HCl pH 8.0, 20 mM KCl, 1 mM EDTA, 0.5 mM TCEP, 20 nM probe, 10-80 nM Pol delta, 25 C 30 min; 7% native PAGE, 0.5x TBE; conditions: protein: recombinant;recombinant;recombinant;recombinant;recombinant; copies: 1;1;1;1;3; label: 5'-fluorescein (FAM); single strand
[2] = target: T2, POLD1-CS;POLD2;POLD3;POLD4 (Homo sapiens;Homo sapiens;Homo …, UniProt P28340;P49005;Q15054;Q9HCU8 1-1107;1-469;1-466;1-107, C1076S|||); assay: EMSA; without PCNA; no defect; EMSA: 20 mM Tris-HCl pH 8.0, 20 mM KCl, 1 mM EDTA, 0.5 mM TCEP, 20 nM probe, 10-80 nM Pol delta, 25 C 30 min; 7% native PAGE, 0.5x TBE; conditions: protein: recombinant;recombinant;recombinant;recombinant; copies: 1;1;1;1; label: 5'-fluorescein (FAM); single strand
[3] = target: T3, POLD1-HW;POLD2;POLD3;POLD4 (Homo sapiens;Homo sapiens;Homo …, UniProt P28340;P49005;Q15054;Q9HCU8 1-1107;1-469;1-466;1-107, H1066W|||); assay: EMSA; without PCNA; not impaired; EMSA: 20 mM Tris-HCl pH 8.0, 20 mM KCl, 1 mM EDTA, 0.5 mM TCEP, 20 nM probe, 10-80 nM Pol delta, 25 C 30 min; 7% native PAGE, 0.5x TBE; conditions: protein: recombinant;recombinant;recombinant;recombinant; copies: 1;1;1;1; label: 5'-fluorescein (FAM) on strand 1; blunt; one unpaired A in strand 2 as printed
[4] = target: T4, POLD1-HY;POLD2;POLD3;POLD4 (Homo sapiens;Homo sapiens;Homo …, UniProt P28340;P49005;Q15054;Q9HCU8 1-1107;1-469;1-466;1-107, H1066Y|||); assay: as above; conditions: protein: recombinant;recombinant;recombinant;recombinant; copies: 1;1;1;1; label: 5'-fluorescein (FAM) on strand 1; blunt; one unpaired A in strand 2 as printed
[5] = target: T1, POLD1-CS;POLD2;POLD3;POLD4;PCNA; assay: EMSA; copurified with PCNA; defect alleviated; EMSA: 20 mM Tris-HCl pH 8.0, 20 mM KCl, 1 mM EDTA, 0.5 mM TCEP, 20 nM probe, 10-80 nM Pol delta, 25 C 30 min; 7% native PAGE, 0.5x TBE; conditions: protein: recombinant;recombinant;recombinant;recombinant;recombinant; copies: 1;1;1;1;3; label: 5'-fluorescein (FAM) on strand 1; blunt; one unpaired A in strand 2 as printed
[6] = target: POLD1-HW;POLD2;POLD3;POLD4;PCNA (Homo sapiens;Homo sapiens;Homo …, UniProt P28340;P49005;Q15054;Q9HCU8;P12004 1-1107;1-469;1-466;1-107;1-261, H1066W||||); assay: EMSA; copurified with PCNA; EMSA: 20 mM Tris-HCl pH 8.0, 20 mM KCl, 1 mM EDTA, 0.5 mM TCEP, 20 nM probe, 10-80 nM Pol delta, 25 C 30 min; 7% native PAGE, 0.5x TBE; conditions: protein: recombinant;recombinant;recombinant;recombinant;recombinant; copies: 1;1;1;1;3; label: 5'-fluorescein (FAM) on strand 1; 5' overhang 16 nt on template strand 2; one unpaired A in strand 2 as printed
[7] = target: POLD1-HY;POLD2;POLD3;POLD4;PCNA (Homo sapiens;Homo sapiens;Homo …, UniProt P28340;P49005;Q15054;Q9HCU8;P12004 1-1107;1-469;1-466;1-107;1-261, H1066Y||||); assay: as above; conditions: protein: recombinant;recombinant;recombinant;recombinant;recombinant; copies: 1;1;1;1;3; label: 5'-fluorescein (FAM) on strand 1; 5' overhang 16 nt on template strand 2; one unpaired A in strand 2 as printed
[8] = target: POLD1 WT (catalytic subunit of Pol delta);POLD2;POLD3;POLD4;PCNA (Homo sapiens;Homo sapiens;Homo …, UniProt P28340;P49005;Q15054;Q9HCU8;P12004 1-1107;1-469;1-466;1-107;1-261, ||||); assay: as above; conditions: protein: recombinant;recombinant;recombinant;recombinant;recombinant; copies: 1;1;1;1;3; label: 5'-fluorescein (FAM) on strand 1; 5' overhang 16 nt on template strand 2; one unpaired A in strand 2 as printed
[9] = target: T3, POLD1-HW;POLD2;POLD3;POLD4; assay: EMSA; without PCNA; EMSA: 20 mM Tris-HCl pH 8.0, 20 mM KCl, 1 mM EDTA, 0.5 mM TCEP, 20 nM probe, 10-80 nM Pol delta, 25 C 30 min; 7% native PAGE, 0.5x TBE; conditions: protein: recombinant;recombinant;recombinant;recombinant; copies: 1;1;1;1; label: 5'-fluorescein (FAM) on strand 1; 5' overhang 16 nt on template strand 2; one unpaired A in strand 2 as printed
[10] = target: POLD1 WT (catalytic subunit of Pol delta);POLD2;POLD3;POLD4 (Homo sapiens;Homo sapiens;Homo …, UniProt P28340;P49005;Q15054;Q9HCU8 1-1107;1-469;1-466;1-107, |||); assay: as above; conditions: protein: recombinant;recombinant;recombinant;recombinant; copies: 1;1;1;1; label: 5'-fluorescein (FAM) on strand 1; 5' overhang 16 nt on template strand 2; one unpaired A in strand 2 as printed
[11] = target: T4, POLD1-HY;POLD2;POLD3;POLD4; assay: as above; conditions: protein: recombinant;recombinant;recombinant;recombinant; copies: 1;1;1;1; label: 5'-fluorescein (FAM) on strand 1; 5' overhang 16 nt on template strand 2; one unpaired A in strand 2 as printed
[12] = target: T1, POLD1-CS;POLD2;POLD3;POLD4;PCNA; assay: EMSA; copurified with PCNA; less second (super-shifted) band than WT; EMSA: 20 mM Tris-HCl pH 8.0, 20 mM KCl, 1 mM EDTA, 0.5 mM TCEP, 20 nM probe, 10-80 nM Pol delta, 25 C 30 min; 7% native PAGE, 0.5x TBE; conditions: protein: recombinant;recombinant;recombinant;recombinant;recombinant; copies: 1;1;1;1;3; label: 5'-fluorescein (FAM) on strand 1; 5' overhang 16 nt on template strand 2; one unpaired A in strand 2 as printed
[13] = target: T2, POLD1-CS;POLD2;POLD3;POLD4; assay: EMSA; without PCNA; less second (super-shifted) band than WT; EMSA: 20 mM Tris-HCl pH 8.0, 20 mM KCl, 1 mM EDTA, 0.5 mM TCEP, 20 nM probe, 10-80 nM Pol delta, 25 C 30 min; 7% native PAGE, 0.5x TBE; conditions: protein: recombinant;recombinant;recombinant;recombinant; copies: 1;1;1;1; label: 5'-fluorescein (FAM) on strand 1; 5' overhang 16 nt on template strand 2; one unpaired A in strand 2 as printed

Measured: binding result

T3 sequence (P28340 whole entry H1066W, chain 1 of 4): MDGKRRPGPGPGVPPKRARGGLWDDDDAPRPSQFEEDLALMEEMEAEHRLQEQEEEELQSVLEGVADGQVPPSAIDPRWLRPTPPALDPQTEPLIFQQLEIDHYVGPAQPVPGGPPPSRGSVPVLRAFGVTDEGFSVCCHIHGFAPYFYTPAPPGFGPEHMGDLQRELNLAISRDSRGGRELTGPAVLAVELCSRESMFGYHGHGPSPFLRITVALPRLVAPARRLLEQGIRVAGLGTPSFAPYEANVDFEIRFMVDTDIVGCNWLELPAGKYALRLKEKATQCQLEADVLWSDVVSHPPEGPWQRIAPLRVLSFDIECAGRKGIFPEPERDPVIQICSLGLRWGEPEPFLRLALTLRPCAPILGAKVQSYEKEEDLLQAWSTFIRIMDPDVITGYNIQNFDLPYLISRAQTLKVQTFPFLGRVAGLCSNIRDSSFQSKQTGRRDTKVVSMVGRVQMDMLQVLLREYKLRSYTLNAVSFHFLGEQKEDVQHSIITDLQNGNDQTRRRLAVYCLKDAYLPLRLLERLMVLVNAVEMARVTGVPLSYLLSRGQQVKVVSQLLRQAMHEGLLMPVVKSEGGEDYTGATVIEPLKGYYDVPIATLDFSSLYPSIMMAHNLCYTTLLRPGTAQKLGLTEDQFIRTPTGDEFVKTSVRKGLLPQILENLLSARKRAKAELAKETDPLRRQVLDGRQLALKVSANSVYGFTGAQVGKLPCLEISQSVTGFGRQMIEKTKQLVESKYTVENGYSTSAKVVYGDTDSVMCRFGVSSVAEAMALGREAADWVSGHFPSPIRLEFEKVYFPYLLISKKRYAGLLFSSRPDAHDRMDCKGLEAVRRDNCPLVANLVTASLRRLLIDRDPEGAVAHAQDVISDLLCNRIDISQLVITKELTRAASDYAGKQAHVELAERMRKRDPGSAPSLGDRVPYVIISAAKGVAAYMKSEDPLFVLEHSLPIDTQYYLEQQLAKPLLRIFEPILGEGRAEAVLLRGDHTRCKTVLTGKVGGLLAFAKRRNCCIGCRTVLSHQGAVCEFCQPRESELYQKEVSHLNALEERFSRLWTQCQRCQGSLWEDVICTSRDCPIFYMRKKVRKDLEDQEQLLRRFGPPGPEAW
T3 sequence (P49005 whole entry, chain 2 of 4): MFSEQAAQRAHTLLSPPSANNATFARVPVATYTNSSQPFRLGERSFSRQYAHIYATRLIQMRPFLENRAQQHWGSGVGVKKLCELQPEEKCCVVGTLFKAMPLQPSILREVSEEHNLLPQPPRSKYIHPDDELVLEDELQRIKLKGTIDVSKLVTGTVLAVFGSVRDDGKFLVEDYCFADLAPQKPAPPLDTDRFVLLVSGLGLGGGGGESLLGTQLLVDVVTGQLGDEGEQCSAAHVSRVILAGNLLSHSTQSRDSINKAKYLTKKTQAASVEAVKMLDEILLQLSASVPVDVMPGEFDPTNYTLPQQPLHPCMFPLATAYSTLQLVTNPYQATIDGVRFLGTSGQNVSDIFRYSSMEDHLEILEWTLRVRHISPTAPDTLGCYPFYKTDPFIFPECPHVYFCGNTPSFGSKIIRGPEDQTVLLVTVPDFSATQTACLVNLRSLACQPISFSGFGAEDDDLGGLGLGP
T3 sequence (Q15054 whole entry, chain 3 of 4): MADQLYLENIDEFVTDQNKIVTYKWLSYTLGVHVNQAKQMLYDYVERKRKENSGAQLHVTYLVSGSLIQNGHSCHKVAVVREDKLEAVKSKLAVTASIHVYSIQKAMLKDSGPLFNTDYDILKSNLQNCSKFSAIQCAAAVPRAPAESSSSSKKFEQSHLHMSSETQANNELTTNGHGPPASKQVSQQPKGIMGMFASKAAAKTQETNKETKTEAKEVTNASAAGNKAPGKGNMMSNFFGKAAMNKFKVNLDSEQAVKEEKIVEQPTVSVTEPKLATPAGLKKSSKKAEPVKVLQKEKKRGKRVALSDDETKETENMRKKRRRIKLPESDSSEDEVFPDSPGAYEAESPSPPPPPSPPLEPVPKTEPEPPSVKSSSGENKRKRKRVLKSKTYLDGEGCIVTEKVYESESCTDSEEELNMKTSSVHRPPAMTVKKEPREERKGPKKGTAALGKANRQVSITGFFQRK
T3 sequence (Q9HCU8 whole entry, chain 4 of 4): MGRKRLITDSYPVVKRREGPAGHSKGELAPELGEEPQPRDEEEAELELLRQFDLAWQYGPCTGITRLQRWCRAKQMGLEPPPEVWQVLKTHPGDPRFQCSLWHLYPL
T2 sequence (P28340 whole entry C1076S, chain 1 of 4): as the sequence (P28340 whole entry H1066W, chain 1 of 4) above, with W1066H, C1076S counted along it
T2 sequence (P49005 whole entry, chain 2 of 4): as the sequence (P49005 whole entry, chain 2 of 4) above
T2 sequence (Q15054 whole entry, chain 3 of 4): as the sequence (Q15054 whole entry, chain 3 of 4) above
T2 sequence (Q9HCU8 whole entry, chain 4 of 4): as the sequence (Q9HCU8 whole entry, chain 4 of 4) above
T4 sequence (P28340 whole entry H1066Y, chain 1 of 4): as the sequence (P28340 whole entry H1066W, chain 1 of 4) above, with W1066Y counted along it
T4 sequence (P49005 whole entry, chain 2 of 4): as the sequence (P49005 whole entry, chain 2 of 4) above
T4 sequence (Q15054 whole entry, chain 3 of 4): as the sequence (Q15054 whole entry, chain 3 of 4) above
T4 sequence (Q9HCU8 whole entry, chain 4 of 4): as the sequence (Q9HCU8 whole entry, chain 4 of 4) above
Sequence of POLD1 WT (catalytic subunit of Pol delta);POLD2;POLD3;POLD4 (P28340 whole entry, stated change not applied, chain 1 of 4): as the sequence (P28340 whole entry H1066W, chain 1 of 4) above, with W1066H counted along it
Sequence of POLD1 WT (catalytic subunit of Pol delta);POLD2;POLD3;POLD4 (P49005 whole entry, stated change not applied, chain 2 of 4): as the sequence (P49005 whole entry, chain 2 of 4) above
Sequence of POLD1 WT (catalytic subunit of Pol delta);POLD2;POLD3;POLD4 (Q15054 whole entry, stated change not applied, chain 3 of 4): as the sequence (Q15054 whole entry, chain 3 of 4) above
Sequence of POLD1 WT (catalytic subunit of Pol delta);POLD2;POLD3;POLD4 (Q9HCU8 whole entry, stated change not applied, chain 4 of 4): as the sequence (Q9HCU8 whole entry, chain 4 of 4) above

GTTTCTTCAATCTTCATCATACAGGTCAG (ssDNA) [ssDNA probe (Fig 3E,F)]
binds: [1] | [2]

B1: dsDNA probe (Fig 3C,D) (dsDNA)
DNA 1: GTTTCTTCAATCTTCATCATACAGGTCAG
DNA 2: CTGACCTGTATGATGAAGATTGAAAGAAAC
binds: [3] | [4] | [5]

B2: primer-template (Fig 3A,B) (mixed)
DNA 1: GTTTCTTCAATCTTCATCATACAGGTCAG
DNA 2: CTCGTCAGCATCTCGTCTGACCTGTATGATGAAGATTGAAAGAAAC
not listed: [1] | [2] | [3] | [4] | [5]
binds: all other assays above
